Source: patent US20030083469, “Allosteric control of nuclear hormone receptors” (The Salk Institute for Biological Studies, published 2003)

Molecular target: GAL4 DBD-RXRalpha LBD (Saccharomyces cerevisiae / Homo sapiens, UniProt P04386;P19793 P04386:1-147,P19793:203-462)
Test: cell_activity; fold response to 100 nM LG69; 4 copies UASG TK-LUC, CV-1 cells
Details: tags: GAL4 DBD (1-147) N-terminal fusion

Sequence of GAL4 DBD-RXRalpha LBD (P04386 1-147, chain 1 of 2): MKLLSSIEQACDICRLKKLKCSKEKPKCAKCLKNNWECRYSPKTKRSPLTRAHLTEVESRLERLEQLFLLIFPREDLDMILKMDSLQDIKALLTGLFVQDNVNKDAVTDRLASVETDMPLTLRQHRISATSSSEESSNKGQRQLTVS
Sequence of GAL4 DBD-RXRalpha LBD (P19793 203-462, chain 2 of 2): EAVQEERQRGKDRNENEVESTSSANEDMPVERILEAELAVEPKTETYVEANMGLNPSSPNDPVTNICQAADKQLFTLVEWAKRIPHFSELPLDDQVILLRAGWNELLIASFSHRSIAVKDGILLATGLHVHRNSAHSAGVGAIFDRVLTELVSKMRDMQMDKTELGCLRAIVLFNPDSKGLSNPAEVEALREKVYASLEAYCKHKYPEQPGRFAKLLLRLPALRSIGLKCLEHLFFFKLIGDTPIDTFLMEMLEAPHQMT

B1: UASG x4 (dsDNA)
DNA 1: CGACGGAGTACTGTCCTCCGAGCT
DNA 2: AGCTCGGAGGACAGTACTCCGTCG
activity: 69 fold
